Experimental data taken from patent US20140147444A1 (published 2014).
Where a chain is given by its changes, count along the chain named. Names and notes keep the numbering of the source.

B1: “AT” antibody variant S96W (heavy chain CDR3) (antibody, name in Kabat numbering, V domains shown)
VH: QVQLVQSGAEVRKPGASVKVSCKASGYDFSNYAIHWVRQAPGQRLEWMGWINAGNGNTKFSQKFQGRITVTRDTAASTAYMELRSLRSEDTAVYYCARDWSNMVRGIIIAYYFDYWGQGTLVTVSS
VL: EIVMTQSPSSLSASVGDRVTITCRASQSISRYLNWYQLKPGKAPRLLIYGASSLQSGVPSRFSGSGSGAEFTLTISSLQPEDIATYYCQHTRAFGQGTKVEIKR
notes: not shown: human IgG1 CH1, hinge, CH2 and CH3
B2: “AT” antibody variant S96T (heavy chain CDR3) (antibody, name in Kabat numbering, V domains shown)
VH: B1 VH with W100T
VL: B1 VL
notes: as for B1
B3: “AT” antibody variant S96F (heavy chain CDR3) (antibody, name in Kabat numbering, V domains shown)
VH: B1 VH with W100F
VL: B1 VL
notes: as for B1
B4: “AT” antibody variant S96P (heavy chain CDR3) (antibody, name in Kabat numbering, V domains shown)
VH: B1 VH with W100P
VL: B1 VL
notes: as for B1
B5: “AT” antibody variant S96M (heavy chain CDR3) (antibody, name in Kabat numbering, V domains shown)
VH: B1 VH with W100M
VL: B1 VL
notes: as for B1
B6: “AT” antibody variant S96E (heavy chain CDR3) (antibody, name in Kabat numbering, V domains shown)
VH: B1 VH with W100E
VL: B1 VL
notes: as for B1
B7: “AT” antibody variant S96L (heavy chain CDR3) (antibody, name in Kabat numbering, V domains shown)
VH: B1 VH with W100L
VL: B1 VL
notes: as for B1
B8: “AT” antibody variant S96Q (heavy chain CDR3) (antibody, name in Kabat numbering, V domains shown)
VH: B1 VH with W100Q
VL: B1 VL
notes: as for B1
B9: “AT” antibody variant S96Y (heavy chain CDR3) (antibody, name in Kabat numbering, V domains shown)
VH: B1 VH with W100Y
VL: B1 VL
notes: as for B1
B10: “AT” antibody variant S96V (heavy chain CDR3) (antibody, name in Kabat numbering, V domains shown)
VH: B1 VH with W100V
VL: B1 VL
notes: as for B1
B11: “AT” antibody variant S96G (heavy chain CDR3) (antibody, name in Kabat numbering, V domains shown)
VH: B1 VH with W100G
VL: B1 VL
notes: as for B1
B12: “AT” antibody variant S96I (heavy chain CDR3) (antibody, name in Kabat numbering, V domains shown)
VH: B1 VH with W100I
VL: B1 VL
notes: as for B1
B13: “AT” antibody variant S96R (heavy chain CDR3) (antibody, name in Kabat numbering, V domains shown)
VH: B1 VH with W100R
VL: B1 VL
notes: as for B1
B14: “AT” antibody variant S96N (heavy chain CDR3) (antibody, name in Kabat numbering, V domains shown)
VH: B1 VH with W100N
VL: B1 VL
notes: as for B1
B15: “AT” antibody variant S96D (heavy chain CDR3) (antibody, name in Kabat numbering, V domains shown)
VH: B1 VH with W100D
VL: B1 VL
notes: as for B1
B16: “AT” antibody variant S96H (heavy chain CDR3) (antibody, name in Kabat numbering, V domains shown)
VH: B1 VH with W100H
VL: B1 VL
notes: as for B1
B17: “AT” antibody variant S96K (heavy chain CDR3) (antibody, name in Kabat numbering, V domains shown)
VH: B1 VH with W100K
VL: B1 VL
notes: as for B1
B18: “AT” antibody variant N98D (heavy chain CDR3) (antibody, name in Kabat numbering, V domains shown)
VH: B1 VH with W100S, N102D
VL: B1 VL
notes: as for B1
B19: “AT” antibody variant N98F (heavy chain CDR3) (antibody, name in Kabat numbering, V domains shown)
VH: B1 VH with W100S, N102F
VL: B1 VL
notes: as for B1
B20: “AT” antibody variant N98S (heavy chain CDR3) (antibody, name in Kabat numbering, V domains shown)
VH: B1 VH with W100S, N102S
VL: B1 VL
notes: as for B1
B21: “AT” antibody variant N98K (heavy chain CDR3) (antibody, name in Kabat numbering, V domains shown)
VH: B1 VH with W100S, N102K
VL: B1 VL
notes: as for B1
B22: “AT” antibody variant N98Q (heavy chain CDR3) (antibody, name in Kabat numbering, V domains shown)
VH: B1 VH with W100S, N102Q
VL: B1 VL
notes: as for B1
B23: “AT” antibody variant N98E (heavy chain CDR3) (antibody, name in Kabat numbering, V domains shown)
VH: B1 VH with W100S, N102E
VL: B1 VL
notes: as for B1
B24: “AT” antibody variant N98M (heavy chain CDR3) (antibody, name in Kabat numbering, V domains shown)
VH: B1 VH with W100S, N102M
VL: B1 VL
notes: as for B1
B25: “AT” antibody variant N98V (heavy chain CDR3) (antibody, name in Kabat numbering, V domains shown)
VH: B1 VH with W100S, N102V
VL: B1 VL
notes: as for B1
B26: “AT” antibody variant N98I (heavy chain CDR3) (antibody, name in Kabat numbering, V domains shown)
VH: B1 VH with W100S, N102I
VL: B1 VL
notes: as for B1
B27: “AT” antibody variant N98G (heavy chain CDR3) (antibody, name in Kabat numbering, V domains shown)
VH: B1 VH with W100S, N102G
VL: B1 VL
notes: as for B1
B28: “AT” antibody variant N98H (heavy chain CDR3) (antibody, name in Kabat numbering, V domains shown)
VH: B1 VH with W100S, N102H
VL: B1 VL
notes: as for B1
B29: “AT” antibody variant N98R (heavy chain CDR3) (antibody, name in Kabat numbering, V domains shown)
VH: B1 VH with W100S, N102R
VL: B1 VL
notes: as for B1
B30: “AT” antibody variant N98L (heavy chain CDR3) (antibody, name in Kabat numbering, V domains shown)
VH: B1 VH with W100S, N102L
VL: B1 VL
notes: as for B1
B31: “AT” antibody variant N98W (heavy chain CDR3) (antibody, name in Kabat numbering, V domains shown)
VH: B1 VH with W100S, N102W
VL: B1 VL
notes: as for B1
B32: “AT” antibody variant N98Y (heavy chain CDR3) (antibody, name in Kabat numbering, V domains shown)
VH: B1 VH with W100S, N102Y
VL: B1 VL
notes: as for B1
B33: “AT” antibody variant N98P (heavy chain CDR3) (antibody, name in Kabat numbering, V domains shown)
VH: B1 VH with W100S, N102P
VL: B1 VL
notes: as for B1
B34: “AT” antibody variant S97D (heavy chain CDR3) (antibody, name in Kabat numbering, V domains shown)
VH: B1 VH with W100S, S101D
VL: B1 VL
notes: as for B1
B35: “AT” antibody variant S97E (heavy chain CDR3) (antibody, name in Kabat numbering, V domains shown)
VH: B1 VH with W100S, S101E
VL: B1 VL
notes: as for B1
B36: “AT” antibody variant S97G (heavy chain CDR3) (antibody, name in Kabat numbering, V domains shown)
VH: B1 VH with W100S, S101G
VL: B1 VL
notes: as for B1
B37: “AT” antibody variant S97F (heavy chain CDR3) (antibody, name in Kabat numbering, V domains shown)
VH: B1 VH with W100S, S101F
VL: B1 VL
notes: as for B1
B38: “AT” antibody variant S97H (heavy chain CDR3) (antibody, name in Kabat numbering, V domains shown)
VH: B1 VH with W100S, S101H
VL: B1 VL
notes: as for B1

Molecular target: T1, human OPGbp [143-317] (human, UniProt O14788 143-317)
T1 construct: also called OPGL
T1 sequence (looked up): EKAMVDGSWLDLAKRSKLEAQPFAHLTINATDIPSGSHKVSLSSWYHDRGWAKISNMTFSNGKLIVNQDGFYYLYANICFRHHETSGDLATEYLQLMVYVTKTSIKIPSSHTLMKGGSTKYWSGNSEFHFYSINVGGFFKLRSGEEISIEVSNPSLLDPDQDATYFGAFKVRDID
Assay: SPR (BIAcore), immobilized OPGbp [143-317]

| Binder | Kd | koff | kon |
| --- | --- | --- | --- |
| B1 | 1.26 nM | 0.00203 s⁻¹ | 1.61e+06 M⁻¹ s⁻¹ |
| B2 | 0.53 nM | 0.00167 s⁻¹ | 3.14e+06 M⁻¹ s⁻¹ |
| B3 | 8.45 nM | 0.00268 s⁻¹ | 317000 M⁻¹ s⁻¹ |
| B4 | 1.29 nM | 0.00188 s⁻¹ | 1.45e+06 M⁻¹ s⁻¹ |
| B5 | 2.43 nM | 0.0087 s⁻¹ | 3.57e+06 M⁻¹ s⁻¹ |
| B6 | 0.35 nM | 0.000901 s⁻¹ | 2.54e+06 M⁻¹ s⁻¹ |
| B7 | 0.3 nM | 0.00175 s⁻¹ | 5.84e+06 M⁻¹ s⁻¹ |
| B8 | 3.09 nM | 0.00359 s⁻¹ | 1.16e+06 M⁻¹ s⁻¹ |
| B9 | 0.67 nM | 0.00185 s⁻¹ | 2.75e+06 M⁻¹ s⁻¹ |
| B10 | 2.25 nM | 0.0121 s⁻¹ | 5.37e+06 M⁻¹ s⁻¹ |
| B11 | 3.85 nM | 0.015 s⁻¹ | 3.87e+06 M⁻¹ s⁻¹ |
| B12 | 1.56 nM | 0.00466 s⁻¹ | 2.99e+06 M⁻¹ s⁻¹ |
| B13 | 0.38 nM | 0.00262 s⁻¹ | 6.97e+06 M⁻¹ s⁻¹ |
| B14 | 1.53 nM | 0.00215 s⁻¹ | 1.4e+06 M⁻¹ s⁻¹ |
| B15 | 0.51 nM | 0.00118 s⁻¹ | 2.28e+06 M⁻¹ s⁻¹ |
| B16 | 1.86 nM | 0.00764 s⁻¹ | 4.12e+06 M⁻¹ s⁻¹ |
| B17 | 0.31 nM | 0.00141 s⁻¹ | 4.55e+06 M⁻¹ s⁻¹ |

Molecular target: T1, human OPGbp [143-317]
Assay: SPR (BIAcore), immobilized OPGbp [143-317]
Remark: another data set of the same source

| Binder | Kd | koff | kon | binding result |
| --- | --- | --- | --- | --- |
| B18 | 0.46 nM | 0.00312 s⁻¹ | 6.85e+06 M⁻¹ s⁻¹ | – |
| B19 | 26600 nM | 0.099 s⁻¹ | 3700 M⁻¹ s⁻¹ | – |
| B20 | 0.58 nM | 0.00154 s⁻¹ | 2.67e+06 M⁻¹ s⁻¹ | – |
| B21 | – | – | – | no binding |
| B22 | 0.81 nM | 0.00151 s⁻¹ | 1.86e+06 M⁻¹ s⁻¹ | – |
| B23 | 1.32 nM | 0.00359 s⁻¹ | 2.72e+06 M⁻¹ s⁻¹ | – |
| B24 | 27.5 nM | 0.0814 s⁻¹ | 2.96e+06 M⁻¹ s⁻¹ | – |
| B25 | 0.43 nM | 0.000197 s⁻¹ | 456000 M⁻¹ s⁻¹ | – |
| B26 | 7.6 nM | 0.00436 s⁻¹ | 568000 M⁻¹ s⁻¹ | – |
| B27 | 24.3 nM | 0.00559 s⁻¹ | 230000 M⁻¹ s⁻¹ | – |
| B28 | 1.06 nM | 0.00234 s⁻¹ | 2.2e+06 M⁻¹ s⁻¹ | – |
| B29 | 0.3 nM | 0.00108 s⁻¹ | 3.59e+06 M⁻¹ s⁻¹ | – |
| B30 | 0.82 nM | 0.00122 s⁻¹ | 1.48e+06 M⁻¹ s⁻¹ | – |
| B31 | 2.93 nM | 0.00768 s⁻¹ | 2.62e+06 M⁻¹ s⁻¹ | – |
| B32 | 41.3 nM | 0.0112 s⁻¹ | 272000 M⁻¹ s⁻¹ | – |
| B33 | 1.13 nM | 0.00171 s⁻¹ | 1.51e+06 M⁻¹ s⁻¹ | – |

Molecular target: T1, human OPGbp [143-317]
Assay: SPR (BIAcore), immobilized OPGbp [143-317]
Remark: another data set of the same source

| Binder | binding result | Kd | koff | kon |
| --- | --- | --- | --- | --- |
| B34 | no binding | – | – | – |
| B35 | – | 1940 nM | – | – |
| B36 | no binding | – | – | – |
| B37 | no binding | – | – | – |
| B38 | – | 3 nM | 0.00248 s⁻¹ | 839000 M⁻¹ s⁻¹ |
